Consider 7 molecules from patent US20220002427A1 (ENGMAB SARL, published 2022).

In general, EC50 refers to the concentration giving half of the maximal effect. Read a high EC50 as a less potent agent. The Kd is a measure of binding affinity in units of concentration. By koff is commonly meant a measure of how fast the partners let go of each other. For orientation: kon means a measure of how fast the partners come together.

One experiment addresses T1, human BCMA on cells (human, UniProt Q02223 1-184).
T1 construct: whole, on cells; also called huBCMA on HEK cells; HEK-huBCMA cells
T1 sequence (looked up): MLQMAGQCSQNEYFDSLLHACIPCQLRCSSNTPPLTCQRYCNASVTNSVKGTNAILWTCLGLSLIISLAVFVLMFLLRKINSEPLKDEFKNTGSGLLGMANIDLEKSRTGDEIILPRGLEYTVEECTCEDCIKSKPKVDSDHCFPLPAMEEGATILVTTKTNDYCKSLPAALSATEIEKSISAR
The experiment can be described thus: flow cytometry on HEK-huBCMA cells, PE anti-human Fc detection. A general note: Flow cytometry measures light scatter and fluorescence of single cells or particles in a stream.

The target of experiment [1] is T2, recombinant cynomolgus BCMA Fc(kih) (cynomolgus, UniProt A0A2K5UD97 4-51). Nature of the experiment: ratio of SPR KD values (KD cynomolgus BCMA / KD human BCMA), reference human BCMA Fc(kih). On the procedure:
(§1) The avidity of the interaction between anti-BCMA antibodies and recombinant BCMA Fc(kih) (human and cynomolgus) was determined. Biotinylated recombinant human and cynomolgus BCMA Fc(kih) were directly coupled on a SA chip following instructions (Biacore, Freiburg/Germany). The immobilization level ranged from 200 to 700 RU. […] The dissociation was monitored for 180 seconds. Bulk refractive index differences were corrected for by subtracting the response obtained on the reference flow cell. Here, the anti-BCMA antibodies were flown over an empty surface previously activated and deactivated as described in the standard amine coupling kit. Apparent kinetic constants were derived using the Biacore T200 Evaluation Software (vAA, Biacore AB, Uppsala/Sweden), to fit rate equations for 1:1 Langmuir binding by numerical integration, despite the bivalency of the interaction for comparison purposes. The affinity of the interaction between anti-BCMA antibodies and recombinant human BCMA Fc(kih) was also determined. Anti-human Fab antibody (GE Healthcare) was directly coupled on a CMS chip at pH 5.0 using the standard amine coupling kit (Biacore, Freiburg/Germany). The immobilization level was about 6500 RU. […] The dissociation was monitored for 120 seconds. Bulk refractive index differences were corrected for by subtracting the response obtained on reference flow cell. […] Kinetic constants were derived using the Biacore T100 Evaluation Software (vAA, Biacore AB, Uppsala/Sweden), to fit rate equations for 1:1 Langmuir binding by numerical integration (Table 4).
Based on the affinity values described in Example 2, the affinity of anti-BCMA antibodies to human BCMA vs. cynomolgus BCMA were compared and cyno/hu affinity ratio (gap) values were calculated (Table 5).

The target of experiment [2] is T2, recombinant cynomolgus BCMA Fc(kih). The experiment can be described thus: SPR (Biacore T200), IgG captured via anti-human Fab, BCMA Fc(kih) as analyte, 1:1 Langmuir fit. On the procedure: as §1, with “Assessment of binding of anti-BCMA antibodies to recombinant BCMA by surface plasmon resonance (SPR) as follow. […] The avidity” for “The avidity”
In experiment [3] the target is T3, recombinant human BCMA Fc(kih) (human, UniProt Q02223 4-53, site-specifically biotinylated at the C-terminal avi-tag ; Biotin on the avi-tag at the C-terminus of the Fc knob chain (tag and Fc left out).).
T3 construct: Knobs-into-holes heterodimer carrying one BCMA ectodomain; also called huBCMA Fc(kih); huBCMA; not shown: human IgG1 hinge-Fc knob chain with C-terminal avi-tag, and the unfused Fc hole chain
T3 chain: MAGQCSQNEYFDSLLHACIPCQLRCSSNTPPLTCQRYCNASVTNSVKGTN
The experiment is described as above. The method, then:
as §1, with “Assessment of binding of anti-BCMA antibodies to recombinant BCMA by surface plasmon resonance (SPR) as follow. […] The avidity” for “The avidity”

Experiment [4] deals with T2, recombinant cynomolgus BCMA Fc(kih). Nature of the experiment: SPR one-shot kinetics (ProteOn XPR36), IgG captured from HEK293 supernatant via anti-human F(ab)2, BCMA as analyte. The method, then: (§2) All experiments were performed at 25° C. using PBST as running buffer (10 mM PBS, pH 7.4 and 0.005% (v/v) Tween®20). A ProteOn XPR36 biosensor equipped with GLC and GLM sensor chips and coupling reagents (10 mM sodium acetate, pH 4.5, sulfo-N-hydroxysuccinimide, 1-ethyl-3-(3-dimethylaminopropyl)-carbodiimide hydrochloride [EDC] and ethanolamine) was purchased from BioRad Inc. (Hercules, Calif.). Immobilizations were performed at 30 μl/min. on a GLM chip. pAb (goat) anti hu IgG, F(ab)2 specific Ab (Jackson) was coupled in vertical direction using a standard amine-coupling procedure: all six ligand channels were activated for 5 min with a mixture of EDC (200 mM) and sulfo-NHS (50 mM). Immediately after the surfaces were activated, pAb (goat) anti hu IgG, F(ab)2 specific antibody (50 μg/ml, 10 mM sodium acetate, pH 5) was injected across all six channels for 5 min. Finally, channels were blocked with a 5 min injection of 1 M ethanolamine-HCl (pH 8.5). […] One-shot kinetic measurements were performed by injection of a dilution series of human, cyno and mouse BCMA (50, 10, 2, 0.4, 0.08, 0 nM, 50 μl/min) for 3 min along the vertical channels. Dissociation was monitored for 5 min Kinetic data were analyzed in ProteOn Manager v. 2.1. Processing of the reaction spot data involved applying an interspot-reference and a double-reference step using an inline buffer blank (Myszka, 1999). The processed data from replicate one-shot injections were fit to a simple 1:1 Langmuir binding model without mass transport (O'Shannessy et al., 1993).

Experiment [5] addresses T3, recombinant human BCMA Fc(kih). The description is as above. The method, then: as §2
Experiment [6] has as its target T4, murine BCMA extracellular domain, monomeric Fc-fusion (murine, UniProt O88472 1-49, site-specifically biotinylated at the C-terminal avi-tag).
T4 construct: extracellular domain; also called muBCMA; mouse BCMA; not shown: hinge and Fc of human IgG1, knob chain; avi-tag; unfused human IgG1 Fc portion (hole chain)
Described as above. The method, then: as §2

Values joined by “and” are separate entries in the source; they are usually repeats but may differ in a detail not shown here. Equal entries are not always repeated.

T2 sequence (A0A2K5UD97 entry or part of it): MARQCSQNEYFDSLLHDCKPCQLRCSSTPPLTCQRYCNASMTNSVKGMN
T4 sequence (O88472 whole entry, the tested form may be a part): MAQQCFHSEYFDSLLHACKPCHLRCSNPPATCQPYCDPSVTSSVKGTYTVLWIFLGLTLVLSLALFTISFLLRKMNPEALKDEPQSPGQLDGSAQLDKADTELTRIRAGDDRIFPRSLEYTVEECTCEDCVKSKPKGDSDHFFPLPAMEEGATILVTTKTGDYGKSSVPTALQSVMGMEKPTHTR

B1: Mab 21 IgG (antibody, V domains shown)
VH: EVQLLESGGGLVQPGGSLRLSCAASGFTFSDNAMGWVRQAPGKGLEWVSAISGPGSSTYYADSVKGRFTISRDNSKNTLYLQMNSLRAEDTAVYYCAKVLGWFDYWGQGTLVTVSS
VL: EIVLTQSPGTLSLSPGERATLSCRASQSVSEYYLAWYQQKPGQAPRLLIEHASTRATGIPDRFSGSGSGTDFTLTISRLEPEDFAVYYCQQYGYPPDFTFGQGTKVEIK
notes: also called antibody 21
On to B1, for which, in the experiment with human BCMA on cells, the half-maximal effective concentration (EC50) was 2.46 nM and 0.35 µg/mL. Besides, the Affinity cyno/hu gap in experiment [1] was found to be 9.3 fold. Further, the Kd in experiment [2] came to 0.478 nM; in experiment [3] it was 0.0516 nM; in experiment [4], 0.051 nM; in experiment [5], 0.028 nM; in experiment [6], 0.73 nM. Further, the values for the koff in experiment [2] and in experiment [3] were 0.000235 s⁻¹ and 4.39e-05 s⁻¹, respectively. In addition, the kon in experiment [2] was found to be 491000 M⁻¹ s⁻¹; in experiment [3], 851000 M⁻¹ s⁻¹.

B2: Mab 14 (antibody, V domains shown)
VH: EVQLLESGGGLVQPGGSLRLSCAASGFTFYTNAMGWVRQAPGKGLEWVSAINRFGGSTYYADSVKGRFTISRDNSKNTLYLQMNSLRAEDTAVYYCAKVLGWFDYWGQGTLVTVSS
VL: EIVLTQSPGTLSLSPGERATLSCRASQSVSDEYLSWYQQKPGQAPRLLIHSASTRATGIPDRFSGSGSGTDFTLAISRLEPEDFAVYYCQQYGYPPDFTFGQGTKVEIK
notes: IgG variant (VH/VL combination)
As to B2, the EC50 with human BCMA on cells is 1.47 nM and 0.21 µg/mL.

B3: Mab 39 IgG (antibody, V domains shown)
VH: EVQLLESGGGLVQPGGSLRLSCAASGFTFTQNAMGWVRQAPGKGLEWVSAISPTGFSTYYADSVKGRFTISRDNSKNTLYLQMNSLRAEDTAVYYCAKVLGWFDYWGQGTLVTVSS
VL: EIVLTQSPGTLSLSPGERATLSCRASQSVSEYYLAWYQQKPGQAPRLLIEHASTRATGIPDRFSGSGSGTDFTLTISRLEPEDFAVYYCQQYGYPPDFTFGQGTKVEIK
As to B3, the concentration giving a half-maximal response (EC50) with human BCMA on cells is 1.73 nM and 0.25 µg/mL. Besides, the Affinity cyno/hu gap in experiment [1] came out at 14 fold. The Kd in experiment [2] was 2.17 nM; in experiment [3] it was 0.155 nM; in experiment [4] it was 0.27 nM; in experiment [5] it was 0.062 nM. In addition, the off-rate (koff) stood at 0.000467 s⁻¹ in experiment [2] and 5.58e-05 s⁻¹ in experiment [3]. The results for the kon in experiment [2] and in experiment [3] were 215000 M⁻¹ s⁻¹ and 361000 M⁻¹ s⁻¹, respectively.

B4: Mab 44 (antibody, V domains shown)
VH: EVQLLESGGGLVQPGGSLRLSCAASGFTFSSAPMGWVRQAPGKGLEWVSAISYIGHTYYADSVKGRFTISRDNSKNTLYLQMNSLRAEDTAVYYCAKVLGWFDYWGQGTLVTVSS
VL: EIVLTQSPGTLSLSPGERATLSCRASQSVSDEYLSWYQQKPGQAPRLLIHSASTRATGIPDRFSGSGSGTDFTLAISRLEPEDFAVYYCQQYGYPPDFTFGQGTKVEIK
notes: IgG variant
In the case of B4, the EC50 with human BCMA on cells is 1.55 nM and 0.22 µg/mL.

B5: Mab 28 (antibody, V domains shown)
VH: EVQLLESGGGLVQPGGSLRLSCAASGFTFSSAPMGWVRQAPGKGLEWVSAISYIGHTYYADSVKGRFTISRDNSKNTLYLQMNSLRAEDTAVYYCAKVLGWFDYWGQGTLVTVSS
VL: EIVLTQSPGTLSLSPGERATLSCRASQSVSSYYLAWYQQKPGQAPRLLISGAGSRATGIPDRFSGSGSGTDFTLTISRLEPEDFAVYYCQQYGYPPDFTFGQGTKVEIK
notes: IgG variant
Take B5: the EC50 with human BCMA on cells was 11.3 nM and 1.63 µg/mL.

B6: Mab 22 IgG (antibody, V domains shown)
VH: EVQLLESGGGLVQPGGSLRLSCAASGFTFSDNAMGWVRQAPGKGLEWVSAISGPGSSTYYADSVKGRFTISRDNSKNTLYLQMNSLRAEDTAVYYCAKVLGWFDYWGQGTLVTVSS
VL: EIVLTQSPGTLSLSPGERATLSCRASQSVSSYYLAWYQQKPGQAPRLLISGAGSRATGIPDRFSGSGSGTDFTLTISRLEPEDFAVYYCQQYGYPPDFTFGQGTKVEIK
notes: also called antibody 22; clone 22
In the case of B6, the EC50 with human BCMA on cells was 2.08 nM and 0.3 µg/mL. Also, the Affinity cyno/hu gap in experiment [1] stood at 15.4 fold. In addition, the Kd in experiment [2] is 0.974 nM; in experiment [3] it was 0.0633 nM; in experiment [5], 0.048 nM; in experiment [6], 0.9 nM. In addition, the koff in experiment [2] came to 0.000442 s⁻¹; in experiment [3], 5.15e-05 s⁻¹. The kon worked out at 454000 M⁻¹ s⁻¹ in experiment [2] and 814000 M⁻¹ s⁻¹ in experiment [3].

B7: Mab 34 (antibody, V domains shown)
VH: EVQLLESGGGLVQPGGSLRLSCAASGFTFYTNAMGWVRQAPGKGLEWVSAINRFGGSTYYADSVKGRFTISRDNSKNTLYLQMNSLRAEDTAVYYCAKVLGWFDYWGQGTLVTVSS
VL: EIVLTQSPGTLSLSPGERATLSCRASQSVSSYYLAWYQQKPGQAPRLLISGAGSRATGIPDRFSGSGSGTDFTLTISRLEPEDFAVYYCQQYGYPPDFTFGQGTKVEIK
notes: IgG variant
In the case of B7, in the experiment with human BCMA on cells, the EC50 was 1.24 nM and 0.18 µg/mL.
